Assay results as given in US20240425606A1, “ANTI-IL-11RA ANTIBODIES” (Lassen Therapeutics 1, Inc., priority 2021, published 2024).

T1: human IL-11Rα (human, UniProt Q14626 23-363, limits assumed)
T1 construct: Protein coated on ELISA plates and used in solution for BLI; also called hIL-11Rα; hIL-11R
T1 sequence: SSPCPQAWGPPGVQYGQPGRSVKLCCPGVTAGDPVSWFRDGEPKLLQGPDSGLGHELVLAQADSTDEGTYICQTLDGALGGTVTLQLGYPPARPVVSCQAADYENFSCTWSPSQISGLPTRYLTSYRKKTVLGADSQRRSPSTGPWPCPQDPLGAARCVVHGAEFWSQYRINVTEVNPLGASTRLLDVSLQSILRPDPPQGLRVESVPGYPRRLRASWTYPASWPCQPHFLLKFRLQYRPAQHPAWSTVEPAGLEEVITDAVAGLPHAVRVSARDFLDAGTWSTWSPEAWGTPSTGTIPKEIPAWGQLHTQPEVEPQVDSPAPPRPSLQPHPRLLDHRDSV

T2: hIL-1 IR (Homo sapiens, UniProt Q14626)
T2 sequence (Q14626 23-422): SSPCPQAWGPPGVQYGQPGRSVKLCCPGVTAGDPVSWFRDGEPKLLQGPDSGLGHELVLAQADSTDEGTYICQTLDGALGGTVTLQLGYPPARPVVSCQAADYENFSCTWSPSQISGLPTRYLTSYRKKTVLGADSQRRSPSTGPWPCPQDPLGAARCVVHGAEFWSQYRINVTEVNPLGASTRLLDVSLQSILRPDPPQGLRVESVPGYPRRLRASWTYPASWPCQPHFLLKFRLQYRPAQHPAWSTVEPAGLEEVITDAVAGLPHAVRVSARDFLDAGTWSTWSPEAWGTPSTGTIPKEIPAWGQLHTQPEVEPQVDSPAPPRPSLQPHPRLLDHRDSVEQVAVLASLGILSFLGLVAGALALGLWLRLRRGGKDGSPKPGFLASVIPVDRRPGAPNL


Legend:
human IL-11Rα = target: T1, human IL-11Rα; assay: competitive ELISA, IL-11R coated on plate; competitor: biotinylated 8E2 (0.1 µg/mL); competing against 8E2-bio
Procedure: Relative binding activity of the antibodies was tested by competitive ELISA using biotinylated mAbs 8E2 or TS7. Antibodies 8E2 and TS7 were biotinylated using sulfo-NHS Biotin (Thermo Fisher) per the manufacturer's instructions. IL-11R was coated onto ELISA plates (Nunc, MaxiSorp) at 2 μg/mL in PBS, and plates were blocked with 2% BSA in PBS. After washing the plate with water, antibodies to be tested were titrated across the plate in a final volume of 90 μL followed by addition of 10 μL of biotinylated 8E2 or biotinylated TS7, as indicated in Table E1 (0.1 μg/mL final concentration) to each well. Plates were incubated for 2 hours on a plate-shaker, followed by washing and addition of 100 μL/well of streptavidin-HRP (Jackson ImmunoResearch, 1/1000 dilution). After a further 1 hour incubation, plates were washed, developed with Ultra-TMB HRP substrate (Thermo Fisher), and stopped by the addition of 50 μL/well of 2 M sulfuric acid. Plates were read at 450 nm on an iD5 plate reader (Molecular Devices).

hIL-1 IR [1] = target: T2, hIL-1 IR; assay: Alternate biolayer interferometry assay (AHC biosensors) ranking mAbs 16-32 against mAb5; format: binding; details: for ka: association 120 s; for qualitative assessment: compared to mAb5; for kd: dissociation 1200 s
Excerpt: A further series of antibodies were designed in which the residue at Kabat position 31 of the heavy chain was varied (mAbs 16-32). In this case an alternate biolayer interferometry assay was used to initially rank the antibodies compared to mAb5, the closest relative in sequence to mAbs 16-32. MAbs were loaded onto anti-human constant domain (AHC) biosensors (FortdBio) in 10× kinetics buffer consisting of PBS, 0.1% BSA, 0.02% Tween 20 for 120 s to achieve a spectral shift value of 0.8 to 1.2 nm. Association was carried out in the presence of 2-fold dilution series of hIL-1 IR and was allowed to proceed for 120 s. Dilution series started 10 nM. The dissociation in 10× kinetics buffer for 1200 s. Binding kinetic measurements were taken on an Octet RED96e instrument.

hIL-1 IR [2] = target: T2, hIL-1 IR; assay: as above; format: binding; details: compared to mAb5

Row | IC50 (human IL-11Rα) [µg/mL] | ka (hIL-1 IR [1]) [M⁻¹ s⁻¹] | qualitative assessment (hIL-1 IR [1]) | kd (hIL-1 IR [1]) | potency by more detailed kinetic measurements (in words) (hIL-1 IR [2]) | Molecule
1 | > 10 | – | – | – | – | mAb1 (antibody, V domains shown, Expressed as human IgG4 (S228P EU)) VH: EVQLLESGGGLVQPGGSLRLSCAASGFTFSWYSMTWVRQAPGKGLEWVSSIVPSGGHTQYADSVKGRFTISRDNSKNTLYLQMNSLRAEDTAVYYCAKGPDWGSFDLWGRGTLVTVSS VL: DIQMTQSPSSLSASVGDRVTITCQASQDINNYLNWYQQKPGKAPKLLIYDASNLQTGVPSRFSGSGSGTDFTFTISSLQPEDIATYYCQQHESQSPTFGPGTKVDIK
2 | – | 720000 | improved/ | off-scale | further improved potency | mAb23: anti-IL-11Rα antibody; VH SEQ ID NO: 237, VL SEQ ID NO: 238; heavy chain Kabat position 31 variant of mAb5 (antibody, V domains shown, mAb23 VH Chain; mAb23 VL Chain, anti-IL-11Rα antibody; heavy chain Kabat position 31 variant of mAb5) VH: EVQLLESGGGLVQPGGSLRLSCAASGFTFSKYSMTWVRQAPGKGLEWVSSIVPYGDLTQYADSVKGRFTISRDNSKNTLYLQMNSLRAEDTAVYYCAKGPGWGSFDLWGRGTLVTVSS VL: DIQMTQSPSSLSASVGDRVTITCQASQDINNYLNWYQQKPGKAPKLLIYDASNLQTGVPSRFSGSGSGTDFTFTISSLQPEDIATYYCQQHESQSPTFGPGTKVDIK
3 | – | 690000 | improved/ | off-scale | further improved potency | mAb31: anti-IL-11Rα antibody; VH SEQ ID NO: 253, VL SEQ ID NO: 254; heavy chain Kabat position 31 variant of mAb5 (antibody, V domains shown, mAb31 VH Chain; mAb31 VL Chain, anti-IL-11Rα antibody; heavy chain Kabat position 31 variant of mAb5) VH: EVQLLESGGGLVQPGGSLRLSCAASGFTFSVYSMTWVRQAPGKGLEWVSSIVPYGDLTQYADSVKGRFTISRDNSKNTLYLQMNSLRAEDTAVYYCAKGPGWGSFDLWGRGTLVTVSS VL: DIQMTQSPSSLSASVGDRVTITCQASQDINNYLNWYQQKPGKAPKLLIYDASNLQTGVPSRFSGSGSGTDFTFTISSLQPEDIATYYCQQHESQSPTFGPGTKVDIK
4 | – | 610000 | improved/ | 1.8e-05 s⁻¹ | further improved potency | mAb29: anti-IL-11Rα antibody; VH SEQ ID NO: 249, VL SEQ ID NO: 250; heavy chain Kabat position 31 variant of mAb5 (antibody, V domains shown, mAb29 VH Chain; mAb29 VL Chain, anti-IL-11Rα antibody; heavy chain Kabat position 31 variant of mAb5) VH: EVQLLESGGGLVQPGGSLRLSCAASGFTFSSYSMTWVRQAPGKGLEWVSSIVPYGDLTQYADSVKGRFTISRDNSKNTLYLQMNSLRAEDTAVYYCAKGPGWGSFDLWGRGTLVTVSS VL: DIQMTQSPSSLSASVGDRVTITCQASQDINNYLNWYQQKPGKAPKLLIYDASNLQTGVPSRFSGSGSGTDFTFTISSLQPEDIATYYCQQHESQSPTFGPGTKVDIK
